For orientation: Kd means the concentration at which binding is half-saturated.

The target of test [1] is T1, Human OSM (human).
T1 chain: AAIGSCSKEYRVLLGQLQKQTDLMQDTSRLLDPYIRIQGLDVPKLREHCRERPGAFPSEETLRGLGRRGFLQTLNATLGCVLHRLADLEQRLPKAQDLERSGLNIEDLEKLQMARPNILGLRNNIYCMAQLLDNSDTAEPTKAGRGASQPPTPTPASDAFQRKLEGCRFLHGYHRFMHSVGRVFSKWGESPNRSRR
In words: in vivo affinity estimated from FTIH PK/PD data (rounded restatement of the TMDD estimate).

Test [2] addresses T1, Human OSM. As to the kind of experiment: in vivo affinity in serum, estimated with a TMDD model (one-compartment PK plus binding kinetics) from free and total OSM levels in the single ascending dose FTIH study.

B1: mab 1 (antibody)
heavy: SYAMS
light: EVQLVESGGGLVQPGGSLRLSCAASGFTFSSYAMSWVRQAPGKGLEWVATISDGGSFTYYLDNVRGRFTISRDNAKNSLYLQMNSLRAEDTAVYYCARDVGHTTFWYFDVWGRGTLVTVSS
notes: Humanised anti-OSM antibody derived from murine 10G8; also called humanised mab 1 derived from 10G8; Mature H0 (IGHV3_23 CDRH1) heavy chain with Mature L1 light chain
With B1, the figures for the Kd with Human OSM [1] and with Human OSM [2] were roughly 0.6 nM and 0.568 nM, respectively.

Values taken from patent US20210155687A1 (published 2021).
